The values that follow come from patent publication US10590193 (dated 2020).

Positions count from the first letter of the chain named.

To fix the notation:
T1: mouse VEGF164 (mouse, UniProt Q00731)
T1 chain: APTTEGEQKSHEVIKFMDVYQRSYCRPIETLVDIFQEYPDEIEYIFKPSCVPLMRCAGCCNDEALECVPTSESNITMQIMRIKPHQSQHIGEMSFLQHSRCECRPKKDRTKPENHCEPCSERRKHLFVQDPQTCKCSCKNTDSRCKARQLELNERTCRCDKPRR

T2: human VEGF110 (human, UniProt P15692)
T2 chain: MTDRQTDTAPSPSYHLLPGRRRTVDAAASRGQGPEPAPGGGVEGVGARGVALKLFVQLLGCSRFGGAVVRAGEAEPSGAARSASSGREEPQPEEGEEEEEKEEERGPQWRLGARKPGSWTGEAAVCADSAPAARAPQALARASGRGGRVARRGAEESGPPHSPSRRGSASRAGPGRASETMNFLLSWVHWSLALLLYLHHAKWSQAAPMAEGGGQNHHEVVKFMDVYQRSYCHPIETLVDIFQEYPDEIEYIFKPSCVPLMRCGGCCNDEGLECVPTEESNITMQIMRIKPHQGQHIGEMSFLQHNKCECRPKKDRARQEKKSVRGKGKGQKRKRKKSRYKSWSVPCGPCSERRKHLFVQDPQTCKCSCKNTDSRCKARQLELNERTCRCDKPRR

T3: rat VEGF164 (rat, UniProt P16612)
T3 chain: T1 chain with S10A, I14V, I75V

T4: human VEGF165 (human, UniProt P15692)
T4 chain: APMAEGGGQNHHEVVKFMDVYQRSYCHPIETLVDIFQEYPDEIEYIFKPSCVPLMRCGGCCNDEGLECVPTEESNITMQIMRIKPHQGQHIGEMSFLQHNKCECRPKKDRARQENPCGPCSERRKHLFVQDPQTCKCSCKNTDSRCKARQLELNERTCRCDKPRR

T5: human PlGF (human, UniProt P49763)
T5 chain: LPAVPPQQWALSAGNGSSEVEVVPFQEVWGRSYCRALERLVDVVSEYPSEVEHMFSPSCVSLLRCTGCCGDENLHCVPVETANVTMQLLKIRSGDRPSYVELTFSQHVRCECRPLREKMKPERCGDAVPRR

T6: human VEGF121 (human, UniProt P15692)
T6 chain: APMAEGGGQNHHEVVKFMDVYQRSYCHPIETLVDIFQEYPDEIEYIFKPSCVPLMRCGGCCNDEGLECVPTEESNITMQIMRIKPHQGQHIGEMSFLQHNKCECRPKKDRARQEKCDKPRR

B1: 511-min (antibody, V domains shown)
VH: EVQLVESGGGLVQPGGSLRLSCAASGFSLNTYYMNWVRQAPGKGLEWVSIIAPDDTTYYASWAKSRFTISRDNSKNTLYLQMNSLRAEDTAVYYCAKSGDTTAWGADIWGQGTLVTVSS
VL: EIVMTQSPSTLSASVGDRVIITCQASQSINIWCSWYQQKPGKAPKLLIYRASTLASGVPSRFSGSGSGAEFTLTISSLQPDDFATYYCQANYAYSAGYGAAFGQGTKLTVLG
B2: 578-min (antibody, V domains shown)
VH: EVQLVESGGGLVQPGGSLRLSCAASGFSLTDYYYMTWVRQAPGKGLEWVSFIDPDDDPYYATWAKGRFTISRDNSKNTLYLQMNSLRAEDTAVYYCAKGDHNSGWGLDIWGQGTLVTVSS
VL: EIVMTQSPSTLSASVGDRVIITCQASEIIHSWLAWYQQKPGKAPKLLIYLASTLASGVPSRFSGSGSGAEFTLTISSLQPDDFATYYCQNVYLASTNGANFGQGTKLTVLG
B3: 578-max (antibody, V domains shown)
VH: B2 VH with A23T, S50G, N74T, L79V, K98G
VL: B2 VL with A69T, E70Q
B4: 509-min (antibody, V domains shown)
VH: EVQLVESGGGLVQPGGSLRLSCAASGFSLSSYYMCWVRQAPGKGLEWVSCLDYVGDTDYASWAKGRFTISRDNSKNTLYLQMNSLRAEDTAVYYCAKTDDSRGWGLNIWGQGTLVTVSS
VL: EIVMTQSPSTLSASVGDRVIITCQASQNIRIWLSWYQQKPGKAPKLLIYKASTLESGVPSRFSGSGSGAEFTLTISSLQPDDFATYYCQNNAHYSTNGGTFGQGTKLTVLG
B5: 567-min (antibody, V domains shown)
VH: B4 VH with S31D, V54F, D56S, Y59D
VL: B4 VL with S26D, N28S, R30Y
B6: 509-maxII (antibody, V domains shown)
VH: B4 VH with A23T, C35S, S49G, C50I, R71K, N73A, L78V, K97R
VL: B4 VL with A69T
B7: 567-max (antibody, V domains shown)
VH: EVQLVESGGGLVQPGGSLRLSCSVSGFSLSDYYMCWVRQAPGKGLEWVGCLDYFGSTDDASWAKGRFTISKDTSKNTVYLQMNSLRAEDTAVYYCARTDDSRGWGLNIWGQGTLVTVSS
VL: B4 VL with S26D, N28S, R30Y, A69T, E70Q
B8: 509-max (antibody, V domains shown)
VH: B4 VH with A23T, S49G, R71K, N73A, L78V, K97R
VL: B4 VL with A69T
B9: 578minmax FW1.4_DHP (961) (antibody, V domains shown)
VH: B2 VH with L11S, A23T, S50G, N74T, L79V, V93T, K98G, L115T
VL: B2 VL
B10: 578min_max T84N_V89L (1008) (antibody, V domains shown)
VH: B2 VH with A23T, S50G, K98G
VL: B2 VL
B11: 578min_max T84N_V89L_DHP (1017) (antibody, V domains shown)
VH: B2 VH with L11S, A23T, S50G, V93T, K98G, L115T
VL: B2 VL
B12: 375-min (antibody, V domains shown)
VH: EVQLVESGGGLVQPGGSLRLSCAASGFSFTTTDYMCWVRQAPGKGLEWVSCILAGDGSTYYANWAKGRFTISRDNSKNTLYLQMNSLRAEDTAVYYCAKSDPASSWSFALWGQGTLVTVSS
VL: EIVMTQSPSTLSASVGDRVIITCQASENINIWLSWYQQKPGKAPKLLIYQASKLASGVPSRFSGSGSGAEFTLTISSLQPDDFATYYCQNNYSYNRYGAPFGQGTKLTVLG
B13: 610-max (antibody, V domains shown)
VH: EVQLVESGGGLVQPGGSLRLSCTASGIDFSGAYYMGWVRQAPGKGLEWVGYIDYDGDRYYASWAKGRFTISKDTSKNTVYLQMNSLRAEDTAVYYCARSDYSSGWGTDIWGQGTLVTVSS
VL: EIVMTQSPSTLSASVGDRVIITCQASQSISSWLSWYQQKPGKAPKLLIYQASTLASGVPSRFSGSGSGTEFTLTISSLQPDDFATYYCQNNYGFRSYGGAFGQGTKLTVLG

The first assay concerns the target T1, mouse VEGF164. In words: SPR, pH 5. In general terms: In SPR one partner is held on a chip, and binding of the other changes the refractive index at the surface.
Take B1: the Kd (as a rule, the free concentration of one partner at which half of the binding sites on the other are occupied at equilibrium, for simple one-to-one binding) stood at 1.64 nM.

The molecule B2 returned a Kd of 10.7 nM.

On to B3, for which the dissociation constant Kd amounted to 0.429 nM.

Take B4: the equilibrium dissociation constant (Kd) turned out to be 1.63 nM.

Regarding B5, the affinity, expressed as Kd, was 0.17 nM.

B6 gave a Kd of 1.73 nM.

For the molecule B7, binding was characterised by a dissociation constant (Kd) of 0.0929 nM.

Molecule B8 registered a Kd of 1.45 nM.

The target in the next assay is T2, human VEGF110. In words: SPR, pH 5.
In the case of B1, the Kd came out at 1.45 nM.

B2 had an equilibrium dissociation constant (Kd) of 11.4 nM.

The molecule B3 displayed a Kd of 1.38 nM.

For B4, the dissociation constant Kd came out at 1.65 nM.

The molecule B5 showed a dissociation constant Kd of 0.0251 nM.

Molecule B6 registered an equilibrium dissociation constant (Kd) of 1.48 nM.

For the molecule B7, binding was characterised by a dissociation constant (Kd) of 0.0327 nM.

Molecule B8 registered a dissociation constant (Kd) of 0.363 nM.

The target in the next assay is T3, rat VEGF164. In words: SPR, pH 5.
Molecule B1 displayed a Kd of 2.04 nM.

B2 displayed a Kd of 10.7 nM.

Molecule B3 displayed a dissociation constant Kd of 0.598 nM.

B4 had a Kd of 2.41 nM.

For the molecule B5, the Kd was found to be 0.279 nM.

B6 came in with an equilibrium dissociation constant (Kd) of 1.81 nM.

With B7, the Kd was determined as 0.149 nM.

The molecule B8 had a Kd of 1.65 nM.

In the next assay the target is T3, rat VEGF164. In words: SPR, pH 5. This is another data set of the same source.
In the case of B9, the affinity, expressed as Kd, was 0.845 nM.

Regarding B10, binding was put at a Kd of 1.89 nM.

For B11, the dissociation constant Kd stood at 1.82 nM.

A further assay concerns the target T4, human VEGF165. In words: SPR, pH 7.4.
Regarding B1, binding was characterised by a dissociation constant (Kd) of 1.31 nM.

B2 showed a Kd of 0.181 nM.

In the case of B3, the Kd is 0.0237 nM.

B4 registered a Kd of 3.06 nM.

B5 gave a Kd of 0.631 nM.

With B6, binding was put at a Kd of 2.61 nM.

B7 gave a dissociation constant (Kd) of 0.143 nM.

For B8, the dissociation constant (Kd) stood at 0.378 nM.

For another assay, the target named is T4, human VEGF165. In words: SPR, pH 5.
Take B9: the Kd stood at 0.576 nM.

On to B10, for which the equilibrium dissociation constant (Kd) came to 1.59 nM.

A further assay concerns the target T4, human VEGF165. In words: SPR, pH 7.4. This is another data set of the same source.
Consider B12, for which the off-rate (koff) (as a rule, a measure of how fast the partners let go of each other) stood at 3.86 s⁻¹.

With B13, the koff was found to be 35.7 s⁻¹.

Another assay deals with T4, human VEGF165. In words: SPR, pH 5. This is another data set of the same source.
With B1, the Kd amounted to 2.53 nM.

In turn, B2 yielded a Kd of 9.01 nM.

B3 yielded a Kd of 0.439 nM.

B4 had a Kd of 1.82 nM.

As to B5, the dissociation constant Kd came to 0.23 nM.

For the molecule B6, the Kd is 3.37 nM.

The molecule B7 yielded a dissociation constant (Kd) of 0.188 nM.

For the molecule B8, the affinity, expressed as Kd, was 1.21 nM.

Molecule B12 registered a dissociation constant Kd of 5.41 nM.

B13 returned a Kd of 1.18 nM.

Another assay has as its target T1, mouse VEGF164. In words: SPR, pH 5. This is another data set of the same source.
B9: the Kd worked out at 0.608 nM.

B10 yielded an equilibrium dissociation constant (Kd) of 1.53 nM.

Molecule B11 showed a dissociation constant (Kd) of 1.46 nM.

Another assay deals with T5, human PlGF. In words: SPR, pH 5.
As for B1, the binding result was “no binding”.

On to B2, for which the binding result was “no binding”.

On to B3, for which the binding result is recorded as “no binding”.

Regarding B4, the binding result is reported as “no binding”.

With B5, the binding result is given as “no binding”.

For B6, the binding result is listed as “no binding”.

For B7, the binding result is given as “no binding”.

As to B8, the binding result is recorded as “no binding”.

In a further assay the target is T6, human VEGF121. In words: SPR, pH 5.
Consider B1, for which binding was put at a Kd of 1.24 nM.

Turning to B2, binding was characterised by a dissociation constant (Kd) of 9.16 nM.

Take B3: the Kd is 0.95 nM.

Turning to B4, binding was put at a Kd of 1.28 nM.

Molecule B5 registered a dissociation constant (Kd) of 0.0241 nM.

Regarding B6, the Kd is 1.37 nM.

In turn, B7 had a Kd of 0.0511 nM.

On to B8, for which the affinity, expressed as Kd, was 0.335 nM.
